As usually defined, the Kd is the concentration at which binding is half-saturated.

Experiment [1] addresses T1, Biotinylated 14-residue UBC6e peptide (Mus musculus (identical in human), UniProt Q9JJZ4, also: biotin, position not given here).
T1 chain: QADQEAKELARQIS-NH2
Put plainly: BLI. (In general: Biolayer interferometry detects binding as a change in optical thickness at a sensor tip.)

For experiment [2], the target named is UBC6e(1-197)-LPETGGG-biotin (Mus musculus, UniProt Q9JJZ4, biotin at the C-terminus (LPETGGG-biotin, by sortagging)). The experiment in a line: BLI.
The target of experiment [3] is UBC6e(1-197), randomly biotinylated with biotin-NHS (Mus musculus, UniProt Q9JJZ4, biotin on exposed Lys residues (random, biotin-N-hydroxysuccinimide ester)). Put plainly: BLI.
Experiment [4] concerns the target T2, Arl3 sortagged with the UBC6e(168-186) tag (Mus musculus (UBC6e tag), UniProt Q9JJZ4, chimera, also: sortagged to Arl3).
T2 chain: GSSQADQEAKELARQISFK-NH2
The experiment in a line: pull-down.

For experiment [5], the target named is T3, eGFP-UBC6e(168-186) (Mus musculus (printed stretch matches …, UniProt Q9JJZ4, chimera, also: joined to eGFP)).
T3 chain: GSSQADQEAKELARQISFK-NH2
Put plainly: pull-down.

Where no end group is shown, it is not given here.

Chain of UBC6e(1-197)-LPETGGG-biotin (Q9JJZ4 1-197): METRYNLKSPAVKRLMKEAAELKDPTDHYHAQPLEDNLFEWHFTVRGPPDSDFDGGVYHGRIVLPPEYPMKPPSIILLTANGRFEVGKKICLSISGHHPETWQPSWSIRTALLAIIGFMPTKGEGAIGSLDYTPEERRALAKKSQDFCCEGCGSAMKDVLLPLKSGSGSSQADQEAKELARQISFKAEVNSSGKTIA
Chain of UBC6e(1-197), randomly biotinylated with biotin-NHS (Q9JJZ4 1-197): as above

B1: VHH05 (VHH)
VHH: QVQLQESGGGLVQPGGSLRLSCAASGFVFENSAMAWYRQAPGKERELIAVIGTTFIKLAESVKGRFTISRDNAKSTVYLQMNNLKPEDTAVYYCSKSGAYWGQGTQVTVSS
Take B1: the Kd in experiment [1] is about 0.15 nM; in experiment [2], 16 nM; in experiment [3], 14 nM. Also, the binding result in experiment [4] and in experiment [5] was “binds” each time.

The values are drawn from article PMC6774866 (Molecular immunology, 2019).
